We go through two molecules from article doi:10.1101/2020.01.19.911941 (bioRxiv, 2020).

One assay has as its target sPD-1 V1 Fc (human) (UniProt Q15116). The assay can be described thus: SPR. Background: In SPR one partner is held on a chip, and binding of the other changes the refractive index at the surface.
Assay [1] deals with mouse PD-L1 in wild-type parental MC38 cells (mouse (endogenous in MC38), UniProt Q9EP73 19-290). The experiment in a line: flow cytometry on cells. (In general: Flow cytometry measures light scatter and fluorescence of single cells or particles in a stream.)
mouse PD-L1 in wild-type parental MC38 cells, sequence (Q9EP73 19-290): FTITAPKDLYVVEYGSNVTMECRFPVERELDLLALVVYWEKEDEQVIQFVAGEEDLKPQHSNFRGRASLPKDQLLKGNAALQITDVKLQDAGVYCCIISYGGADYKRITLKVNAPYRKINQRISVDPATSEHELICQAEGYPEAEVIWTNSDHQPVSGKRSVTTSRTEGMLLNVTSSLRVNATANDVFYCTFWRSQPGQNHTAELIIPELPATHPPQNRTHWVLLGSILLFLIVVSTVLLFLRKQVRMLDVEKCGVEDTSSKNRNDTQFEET

B1: human PD-L2 (#10292-H08H, SinoBiological) (ligand)
chain: LFTVTVPKELYIIEHGSNVTLECNFDTGSHVNLGAITASLQKVENDTSPHRERATLLEEQLPLGKASFHIPQVQVRDEGQYQCIIIYGVAWDYKYLTLKVKASYRKINTHILKVPETDEVELTCQATGYPLAEVSWPNVSVPANTSHSRTPEGLYQVTSVLRLKPPPGRNFSCVFWNTHVRELTLASIDLQSQMEPRTHPT
B1 yielded a fold improvement in binding affinity over wild type sPD-1 with sPD-1 V1 Fc (human) of 200 fold.

B2: sPD-1 V2 Fc (Fc fusion)
chain: LDSPDRPWNPPTFSPALLVVTEGDNATFTCSFSNTSEGFVLNWYRMSPSNQTDKLAAFPEDRGQLGQDCRFRVTQLPNGRDFHMSVVRARRNDSGTYLCSAIVLAPKIQIKESLRVELRVTERRAEVPTAHPSPSPRPAGQFQTLV
On to B2, for which, in assay [1], the “fold increase in binding signal over wild-type sPD-1” value was ~4 fold.
